Data published in US20210340276A1 (Astellas, published 2021).

Biological target: T1, human cancer-specific MUC1 (on breast cancer cell line T-47D cells) (human, UniProt P15941 24-1255, cancer-specific incomplete O-glycosylation (T, Tn, 2,3ST) of the tandem repeat, as described in the background)
T1 construct: whole, on cells; cells fixed in formalin; also called Mucin 1
Experiment: Cell ELISA on formalin-fixed T-47D cells, HRP anti-human Igκ detection, luminescence; reference 1B2 Fab
Procedure: Specifically, breast cancer cell line T-47D cells (purchasable from ATCC; HTB-133) expressing human cancer-specific MUC1 were inoculated at 0.75×10⁴ cells per well to a 96-well ELISA plate coated with collagen I, and cultured overnight. […] Then, a horseradish peroxidase (HRP)-labeled goat anti-human Igκ antibody (Southern Biotechnology Associates, Inc.) was reacted as a secondary antibody. ECL Prime Western Blotting Detection Reagent (GE Healthcare Japan Corp.) was added thereto for luminescence, and the degree of the luminescence was examined.

B1: P10-1 Fab (Fab, V domains shown)
VH: QVQLVQSGAEVKKPGASVKVSCKASGYTFTNYGLSWVRQAPGQGLEWMGENHPGSGIIYHNEKFRGRVTLTADRSTSTAYMELSSLRSEDTAVYYCARSSGTRGFAYWGQGTLVTVSS
VL: DVVMTQTPLSLSVTPGQPASISCRSSQSIVHSNGNTYLEWYLQKPGQSPQLLIYRVSNRFSGVPDRFSGSGSGTDFTLKISRVEAEDVGVYYCFQGSHGPWTFGQGTKLEIKR
notes: expressed in Expi293F cells, purified with KappaSelect; also called anti-human MUC1 antibody Fab fragment P10-1
  fold binding activity compared to 1B2 Fab: ≥ 10 times

B2: P10-2 Fab (Fab, V domains shown)
VH: QVQLVQSGAEVKKPGASVKVSCKASGYTFTNYGLSWVRQAPGQGLEWMGENHPGSGIIYHNEKFRGRVTLTADRSTSTAYMELSSLRSEDTAVYYCARSSGTRGFDYWGQGTLVTVSS
VL: DVVMTQTPLSLSVTPGQPASISCRSSQSIVHSNGNTYLEWYLQKPGQSPQLLIYRVSNRFSGVPDRFSGSGSGTDFTLKISRVEAEDVGVYYCFQGSHGPWTFGQGTKLEIKR
modifications: heavy chain N-terminal glutamine modified into pyroglutamic acid in a great majority of purified antibodies (Example 2)
notes: expressed in Expi293F cells, purified with KappaSelect; also called anti-human MUC1 antibody Fab fragment P10-2
  fold binding activity compared to 1B2 Fab: ≥ 10 times
